Measurements as given in patent US20210171647A1 (WUXI BIOLOGICS SHANGHAI, published 2021).

Assays:
[1] = target: T1, human OX40 extracellular domain (ECD) protein (human, UniProt P43489 29-214); test: SPR, Biacore T200, antibody captured, OX40 as analyte
T1 construct: extracellular domain; also called human OX40 ECD; human OX40 protein; not shown: human Fc or His tag
T1 sequence (looked up): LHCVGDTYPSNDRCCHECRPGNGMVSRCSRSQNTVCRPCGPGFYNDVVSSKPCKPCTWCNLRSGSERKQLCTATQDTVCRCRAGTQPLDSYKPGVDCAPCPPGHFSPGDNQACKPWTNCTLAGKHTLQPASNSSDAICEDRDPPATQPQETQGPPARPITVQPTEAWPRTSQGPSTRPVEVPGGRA

[2] = target: T2, human OX40, full-length, on cells (human, UniProt P43489 29-277); test: flow cytometry on human OX40 transfected CHO-K1 cells
T2 construct: whole, on cells; also called hPro1; cell surface human OX40
T2 sequence (looked up): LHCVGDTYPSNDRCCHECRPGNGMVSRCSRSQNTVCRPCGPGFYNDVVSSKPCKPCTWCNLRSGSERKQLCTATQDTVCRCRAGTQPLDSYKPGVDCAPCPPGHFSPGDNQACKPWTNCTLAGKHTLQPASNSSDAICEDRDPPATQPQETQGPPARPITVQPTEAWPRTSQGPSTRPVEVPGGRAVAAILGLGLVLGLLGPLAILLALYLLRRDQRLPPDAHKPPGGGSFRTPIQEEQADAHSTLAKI
Procedure: (§1) CHO-K 1 cells expressing human OX40 were transferred in to 96-well U-bottom plates (Corning) at a density of 5×10⁴ cells/mL. Testing antibodies were 1:2 serially diluted in wash buffer (1×PBS/1% BSA) and incubated with cells at 4° C. for 1 h. The secondary antibody goat anti-human IgG Fc FITC (3.2 moles FITC per mole IgG, Jackson Immunoresearch Lab) was added and incubated with cells at 4° C. in the dark for half an hour. The cells were then washed once, resuspended in 1×PBS/1% BSA and analyzed by flow cytometry (BD). Fluorescence intensity was converted to bound molecules/cell based on the quantitative beads Quantum™ MESF Kits (Bangs Laboratories, Inc.). The KD value of each antibody was calculated using Graphpad Prism5.

[3] = target: T2, human OX40, full-length, on cells; test: flow cytometry, CHO-K1 cells expressing human OX40, MESF beads
Procedure: as §1

human OX40-ECD.His A140G = target: T3, human OX40-ECD.His A140G (human, UniProt P43489 29-214); test: ELISA, antibody coated, OX40-ECD.His mutant supernatant; relative to silent alanine substitutions;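 further: captured OX40 mutant protein detected with HRP-labelled anti-His antibody, absorbance read-out, scaled to the mean signal of control mutants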
T3 construct: extracellular domain; not shown: C-terminal His-tag
T3 sequence (looked up): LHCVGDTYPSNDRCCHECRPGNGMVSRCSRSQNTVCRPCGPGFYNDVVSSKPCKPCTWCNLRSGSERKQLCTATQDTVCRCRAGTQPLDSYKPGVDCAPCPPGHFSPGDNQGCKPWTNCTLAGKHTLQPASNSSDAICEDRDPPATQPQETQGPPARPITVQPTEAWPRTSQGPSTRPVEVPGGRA

human OX40-ECD.His G92A = target: T4, human OX40-ECD.His G92A (human, UniProt P43489 29-214); test: as above
T4 construct: extracellular domain; not shown: C-terminal His-tag
T4 sequence (looked up): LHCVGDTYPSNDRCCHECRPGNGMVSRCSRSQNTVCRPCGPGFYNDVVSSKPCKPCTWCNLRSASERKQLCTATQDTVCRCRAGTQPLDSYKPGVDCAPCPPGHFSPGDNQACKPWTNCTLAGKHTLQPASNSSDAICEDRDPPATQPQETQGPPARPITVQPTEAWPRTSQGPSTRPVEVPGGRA

human OX40-ECD.His D74A = target: T5, human OX40-ECD.His D74A (human, UniProt P43489 29-214); test: as above
T5 construct: extracellular domain; not shown: C-terminal His-tag
T5 sequence (looked up): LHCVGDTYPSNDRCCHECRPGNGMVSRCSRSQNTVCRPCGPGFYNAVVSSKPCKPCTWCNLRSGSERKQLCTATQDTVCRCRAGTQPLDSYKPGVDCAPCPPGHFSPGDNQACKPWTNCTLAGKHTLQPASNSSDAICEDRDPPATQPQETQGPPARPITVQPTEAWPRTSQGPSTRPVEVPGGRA

[4] = target: T1, human OX40 extracellular domain (ECD) …; test: competition ELISA: human OX40 ECD coated, antibody titrated in a mix with a constant concentration of OX40L, bound OX40L detected at OD450
Procedure: Briefly, plates (Nunc) were coated with human OX40 ECD at 1 μg/mL overnight at 4° C. […] After washing, TMB substrate was added and the interaction was stopped by 2M HCl.

Kd [1]: 0.179 nM
koff [1]: 3.7e-05 s⁻¹
kon [1]: 207000 M⁻¹ s⁻¹
EC50 (read off the curve) [2]: ~1 nM
Kd [3]: 0.53 nM
Fold Change (human OX40-ECD.His A140G): 0.969
Fold Change (human OX40-ECD.His G92A): 0.233
Fold Change (human OX40-ECD.His D74A): 0.796
IC50 (read off the curve) [4]: ~1 nM
B1: 1.134.9-u1-IgG1L (antibody, V domains shown)
VH: QVQLQESGPGLVKPSGTLSLTCAVSGGSISSYNWWSWVRQPPGKGLEWIGEIYHGGNTNYNPSLKSRVTMSVDNSKNQFSLKLSSVTAADTAVYYCARAPGDWGGSPYFDFWGQGTLVTVSS
VL: SSELTQDPAVSVALGQTVRITCQGDNLRTYYASWYQQKPGQAPILLIYGRNKRPSGIPDRFSGSSSGNTASLTITGAQAEDEAAYYCNSRDSSGNPVVFGGGTKLTVL
notes: fully human IgG1, lambda
